Bridge positions count the residues as written; N and C are the ends.

Some targets named below: Bcl-xL (UniProt Q07817 1-212); Mcl-1; Bcl-2.
Holding throughout (assay): MS-based binding affinity

Bcl-xL, sequence (Q07817 1-212): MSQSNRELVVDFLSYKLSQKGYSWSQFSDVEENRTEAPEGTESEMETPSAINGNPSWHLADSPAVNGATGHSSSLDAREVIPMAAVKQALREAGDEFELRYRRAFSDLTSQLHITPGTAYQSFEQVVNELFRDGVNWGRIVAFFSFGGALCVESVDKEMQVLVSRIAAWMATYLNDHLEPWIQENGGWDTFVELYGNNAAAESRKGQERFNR

B1: SP-4 (BIM-BH3 peptidomimetic macrocycle, Ac-IWIAQELR$IGD$FNAYYARR-NH2) (peptide)
peptide: Ac-IWIAQELRXIGDXFNAYYARR-NH2
modifications: staple 9-13; not fully specified (residues 9, 13); printed as Ac-IWIAQELR$IGD$FNAYYARR-NH2
For B1, the Kd (as a rule, the concentration at which binding is half-saturated) with Bcl-xL is less than 0.1 µM.

B2: SP-4 BIM Stapled (peptide)
peptide: Ac-IWIAQELRXIGDXFNAYYARR-NH2
modifications: staple 9-13; not fully specified (residues 9, 13); printed as Ac-IWIAQELR$IGD$FNAYYARR-NH2
With B2, the Kd with Mcl-1 and with Bcl-2 was less than 0.1 µM each time.
